The target in test [1] is T1, recombinant human CTLA4 extracellular domain (human, UniProt P16410 36-161).
T1 construct: extracellular domain; also called huCTLA-4
T1 sequence (looked up): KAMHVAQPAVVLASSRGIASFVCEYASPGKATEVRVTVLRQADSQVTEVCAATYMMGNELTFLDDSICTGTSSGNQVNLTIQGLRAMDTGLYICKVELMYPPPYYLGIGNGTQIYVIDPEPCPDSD
Kind of test: ELISA, wells coated with human CTLA4, assay pH 6.0; lot 6978 in His buffer, T0; unit from the axis Log[ng/mL]. How it is done:
(§1) Both ELISA and FACS analysis were used to measure the binding activity. […] The amount of bound antibodies was quantified using anti-human IgG antibody conjugated to HRP. The absorbance at 450 nm in each measurement was proportional to the amount of antibodies bound. […] EC50 value (in ng/mL) for binding to human CTLA4 was determined by absorbance at 450 nm against antibody concentration with Prism variable slope of four-parameter dose-response curve, which was calculated using the nonlinear fit (variable slope, four parameters) model built into GraphPad Prism software (version 7.03). The buffers tested included His buffer (His), Tris buffer (Tris), Glutamine buffer (Glu) and no buffer.

Test [2] concerns the target T1, recombinant human CTLA4 extracellular …. Kind of test: ELISA, wells coated with human CTLA4, assay pH 6.0; lot 6978 in His buffer, T2W; unit from the axis Log[ng/mL]. How it is done:
as §1

For test [3], the target named is T2, human CTLA4 expressed on the cell surface of CHO cells (human, UniProt P16410 36-223).
T2 construct: whole, on cells; also called CHO-huCTLA4; huCTLA4
T2 sequence (looked up): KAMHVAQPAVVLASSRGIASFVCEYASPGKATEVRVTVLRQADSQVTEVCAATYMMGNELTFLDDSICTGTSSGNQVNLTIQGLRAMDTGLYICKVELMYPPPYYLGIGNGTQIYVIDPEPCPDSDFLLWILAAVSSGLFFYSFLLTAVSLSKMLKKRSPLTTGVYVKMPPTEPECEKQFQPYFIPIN
Kind of test: FACS, cells expressing human CTLA4, assay pH 7.4, MFI; lot 6978 in His buffer, T2W; unit from the axis Log[ng/mL]. How it is done: (§2) The amount of bound antibodies was quantified using anti-human IgG antibody conjugated to fluorophores. The MFI in each reaction was proportional to the amount of antibodies bound. The EC₅₀ value (in ng/mL) for binding to human CTLA4 on cells was determined by MFI of the singlets population against antibody concentration with a Prism variable slope of four-parameter dose-response curve, which was calculated using the nonlinear fit (variable slope, four parameters) model built into GraphPad Prism software (version 7.03).

For test [4], the target named is T1, recombinant human CTLA4 extracellular …. Kind of test: ELISA, wells coated with human CTLA4, assay pH 7.4; lot 6978 in His buffer, T2W; curve still rising at log 3 (OD450 below 0.2), no plateau; unit from the axis Log[ng/mL]. How it is done:
as §1

In test [5] the target is T2, human CTLA4 expressed on the cell …. The test is described as follows: FACS, cells expressing human CTLA4, assay pH 6.0, MFI; lot 6978 control without test buffer; same column repeated in FIG. 10E and FIG. 10F; unit from the axis Log[ng/mL]. How it is done:
as §2

The target in test [6] is T1, recombinant human CTLA4 extracellular …. The test is described as follows: ELISA, wells coated with human CTLA4, assay pH 7.4; lot 6978 in Glu buffer, T2W; curve still rising at log 3 (OD450 at most about 0.3), no plateau; unit from the axis Log[ng/mL]. How it is done: as §1
Test [7] has the same target. Kind of test: ELISA, immobilised huCTLA-4, table head pH 7.0 (text: pH 7.4), mean +/- SD.
Test [8] shares this target. Kind of test: ELISA, wells coated with human CTLA4, assay pH 6.0; lot 6972 in His buffer, T0; unit from the axis Log[ng/mL]. How it is done:
as §1

Test [9] shares this target. The test is described as follows: ELISA, wells coated with human CTLA4, assay pH 6.0; lot 6972 in Glu buffer, T0; unit from the axis Log[ng/mL]. Here is the method:
as §1

Test [10] deals with T2, human CTLA4 expressed on the cell …. The test is described as follows: FACS, cells expressing human CTLA4, assay pH 7.4, MFI; lot 6972 in His buffer, T2W; unit from the axis Log[ng/mL]. Here is the method: as §2
For test [11] the target is unchanged. The test is described as follows: FACS, cells expressing human CTLA4, assay pH 6.0, MFI; lot 6972 in Glu buffer, T2W; unit from the axis Log[ng/mL]. Here is the method:
as §2

The target in test [12] is T1, recombinant human CTLA4 extracellular …. Kind of test: ELISA, wells coated with human CTLA4, assay pH 6.0; lot 6972 without test buffer; same column repeated in FIG. 9B and FIG. 9C; unit from the axis Log[ng/mL]. How it is done: as §1
Test [13] has the same target. The test is described as follows: ELISA, wells coated with human CTLA4, assay pH 7.4; lot 6972 without test buffer; same column repeated in FIG. 9B and FIG. 9C; unit from the axis Log[ng/mL]. How it is done: as §1

B1: BA-087-08-32 (antibody, V domains shown)
VH: EVQLVQSGAEVKKPGATVKISCKVSGFTFSHYTMHWIRQSPSRGLEWLGFISYDGNYKYYADSVKGRFTISRDNAKNSLYLQMNSLRAEDTAVYYCARTGWLGPFDYWGQGTLVTVSS
VL: EIVMTQSPATLSVSPGERATLSCRASQSVGSSYLAWYQQKPGKAPKLLIYGAFSRATGVPSRFSGSGSGTDFTLTISSLQPEDFATYYCQQDGSSPWTFGQGTKVEIK
notes: Detected with anti-human IgG and a molecular weight of 146 kDa was used in SPR, so it was tested as a whole IgG; also called BA-087-08-032; BA-087-08-32 (# 6978)
In the case of B1, the EC50 amounted to 0.038 µg/mL in [1]; 0.0441 µg/mL in test [2]; 1.18 µg/mL in test [3]; 1.07 µg/mL in test [4]; 0.158 µg/mL in [5]; 0.724 µg/mL in [6].

B2: BA-087-05-19 (antibody, V domains shown)
VH: EVQLVESGGGLVQPGGSLRLSCAASGFTFSHYTMHWVRQAPGKGLEWVSFISYDGNNKYYADSVKGRFTISRDNSKNTLYLQMNSLRAEDTAVYYCARTGWLGPFDYWGQGTLVTVSS
VL: AIQLTQSPSSLSASVGDRVTITCRASQYVGSSYLAWYLQKPGQSPQLLIYGAFSRATGIPARFSGSGSGTEFTLTISSLQSEDFAVYYCQQDGSSPWTFGQGTKVEIK
notes: Detected with anti-human IgG and a molecular weight of 146 kDa was used in SPR, so it was tested as a whole IgG; also called BA-087-05-019; BA-087-05-19 (# 6972)
On to B2, for which the 50% effective concentration (EC50) was 0.0598 µg/mL in [7]; 0.0154 µg/mL in [8]; 0.0109 µg/mL in test [9]; 0.615 µg/mL in test [10]; 0.267 µg/mL in test [11]; 0.00626 µg/mL in test [12]. The concentration for a half-maximal effect (EC50) in test [13] was 0.0546 µg/mL.

Values taken from patent US20210403565A1 (BIOATLA, published 2021).
